Assay results from publication PMC8948881, “Molecular Properties of Human Guanylate Cyclase-Activating Protein 3 (GCAP3) and Its Possible Association with Retinitis Pigmentosa” (International Journal of Molecular Sciences, 2022).
Substitutions are numbered along the chain they refer to. In names and notes the source's numbering stands.

What was measured:
[1] = biological target: T1, GC1 (GC-E, ROS-GC1, RetGC1) (Homo sapiens, UniProt Q02846); test: cGMP production by reversed-phase HPLC; assay type: biochemical; conditions: GC1 membranes, 1 mM free Mg2+, low (<19 nM) or high (~30 µM) Ca2+, pH 7.4; basal and with mGCAP3 or mGCAP1
T1 construct: gene GUCY2D
T1 sequence (Q02846 52-1103): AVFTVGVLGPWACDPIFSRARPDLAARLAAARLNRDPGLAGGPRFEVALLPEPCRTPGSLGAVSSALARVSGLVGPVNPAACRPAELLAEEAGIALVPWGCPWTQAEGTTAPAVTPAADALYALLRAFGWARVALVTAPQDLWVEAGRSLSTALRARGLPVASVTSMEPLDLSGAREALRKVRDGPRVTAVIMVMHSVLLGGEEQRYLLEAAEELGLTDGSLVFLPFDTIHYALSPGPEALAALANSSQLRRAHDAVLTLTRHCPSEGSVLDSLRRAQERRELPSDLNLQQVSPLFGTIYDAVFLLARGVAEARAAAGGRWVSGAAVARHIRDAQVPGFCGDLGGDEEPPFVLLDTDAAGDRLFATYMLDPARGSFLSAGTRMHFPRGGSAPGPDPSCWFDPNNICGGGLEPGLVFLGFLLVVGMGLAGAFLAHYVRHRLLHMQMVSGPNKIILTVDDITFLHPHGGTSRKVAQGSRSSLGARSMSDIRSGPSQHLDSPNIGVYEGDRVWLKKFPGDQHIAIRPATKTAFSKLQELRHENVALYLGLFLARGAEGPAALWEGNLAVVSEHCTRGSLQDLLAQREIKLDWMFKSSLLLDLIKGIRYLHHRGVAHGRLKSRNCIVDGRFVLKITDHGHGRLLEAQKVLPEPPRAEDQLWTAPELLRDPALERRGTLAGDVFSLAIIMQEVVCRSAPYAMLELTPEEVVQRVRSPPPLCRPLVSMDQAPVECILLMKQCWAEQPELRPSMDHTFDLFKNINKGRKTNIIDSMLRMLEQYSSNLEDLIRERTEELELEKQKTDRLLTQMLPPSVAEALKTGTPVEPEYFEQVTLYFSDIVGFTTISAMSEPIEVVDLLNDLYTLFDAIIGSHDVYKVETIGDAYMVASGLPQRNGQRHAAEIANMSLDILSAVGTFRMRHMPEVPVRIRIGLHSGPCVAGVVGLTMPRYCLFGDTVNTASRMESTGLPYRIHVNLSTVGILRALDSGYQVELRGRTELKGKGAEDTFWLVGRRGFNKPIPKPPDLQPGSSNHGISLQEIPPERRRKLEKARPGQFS
T1 sequence (O95843 2-209 partner): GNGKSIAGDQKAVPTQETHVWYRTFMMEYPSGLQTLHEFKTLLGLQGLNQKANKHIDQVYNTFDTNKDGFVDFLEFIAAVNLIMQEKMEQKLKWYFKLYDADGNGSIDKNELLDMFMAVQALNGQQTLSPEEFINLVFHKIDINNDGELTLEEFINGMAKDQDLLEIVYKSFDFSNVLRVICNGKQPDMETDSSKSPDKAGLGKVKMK

[2] = biological target: the molecule itself; test: SEC; analytical SEC, Superose 12 10/300GL, ~40 µM protein loaded, 20 mM Tris-HCl pH 7.5, 150 mM KCl, 1 mM DTT, 500 µM EGTA (apo), 25 °C; apparent MM from a calibration curve
[3] = biological target: the molecule itself; test: SEC; analytical SEC, Superose 12 10/300GL, ~40 µM protein loaded, 20 mM Tris-HCl pH 7.5, 150 mM KCl, 1 mM DTT, 1 mM Mg2+ and 500 µM Ca2+, 25 °C; apparent MM from a calibration curve

Molecule: Nc1nc2c(ncn2[C@@H]2O[C@@H]3COP(=O)(O)O[C@H]3[C@H]2O)c(=O)[nH]1 [cGMP]
- cGMP production by reversed-phase HPLC [1]: The production of cGMP was analyzed by reversed phase HPLC

B1: non-myristoylated wild-type human GCAP3 (guanylate cyclase-activating protein 3) (natural protein, UniProt O95843-1 1-209, looked up)
chain: MGNGKSIAGDQKAVPTQETHVWYRTFMMEYPSGLQTLHEFKTLLGLQGLNQKANKHIDQVYNTFDTNKDGFVDFLEFIAAVNLIMQEKMEQKLKWYFKLYDADGNGSIDKNELLDMFMAVQALNGQQTLSPEEFINLVFHKIDINNDGELTLEEFINGMAKDQDLLEIVYKSFDFSNVLRVICNGKQPDMETDSSKSPDKAGLGKVKMK
notes: Cloned into a plasmid named pET11-E6S; also called nmWT; nmWT GCAP3
- stoichiometry N [2]: 2

B2: non-myristoylated D101H variant of human GCAP3 (natural protein, UniProt O95843-1 1-209, looked up)
chain: B1 chain with D101H
notes: Variant found in a patient with retinitis pigmentosa; Cloned into a plasmid named pET11-E6S; also called nmD101H; nmD101H GCAP3
- stoichiometry N [3]: 2

B3: myristoylated wild-type human GCAP3 (guanylate cyclase-activating protein 3) (natural protein, UniProt O95843-1 1-209, looked up)
chain: B1 chain
modifications: N-terminal myristoylation (degree of myristoylation 58.35%)
notes: Cloned into a plasmid named pET11-E6S; The sample is a mix of about 58% myristoylated and the rest non-myristoylated protein; also called mWT; mWT GCAP3
- stoichiometry N [2]: 2
